Source: article doi:10.1101/2020.05.08.085126
Read-outs that look alike come from different tables or passages of the source.

T1: His-MBP-STF-HD (Medicago truncatula, UniProt G0ZGT3 85-190)
T1 sequence: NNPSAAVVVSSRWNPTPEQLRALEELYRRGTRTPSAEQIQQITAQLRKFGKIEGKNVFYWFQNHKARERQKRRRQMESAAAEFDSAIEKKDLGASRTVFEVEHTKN

B1: MtLOB39 promoter P1 (dsDNA)
DNA 1: GACCAATCAATGTTGAAAATGTAGAATATT
DNA 2: AATATTCTACATTTTCAACATTGATTGGTC
B2: MtLOB39 promoter P3 (dsDNA)
DNA 1: CTTTCAATTATACATTTTAATTAATATTAATTT
DNA 2: AAATTAATATTAATTAAAATGTATAATTGAAAG
B3: MtLOB39 promoter P2 (dsDNA)
DNA 1: TATTCAAATTAATGATTTATTCAATTTT
DNA 2: AAAATTGAATAAATCATTAATTTGAATA
B4: MtLOB38 promoter P1 (dsDNA)
DNA 1: AAAAAAAAATTATATATTAATAGTAATAAATAATAAAAAATAAT
DNA 2: ATTATTTTTTATTATTTATTACTATTAATATATAATTTTTTTTT
B5: MtLOB38 promoter P2 (dsDNA)
DNA 1: TCAAATTTCAAATAGAATAAATTTGAAAGTGATAAATGATTAATTATTTT
DNA 2: AAAATAATTAATCATTTATCACTTTCAAATTTATTCTATTTGAAATTTGA

Legend:
[1] = biological target: T1, His-MBP-STF-HD; assay: EMSA
[2] = biological target: T1, His-MBP-STF-HD; assay: EMSA; remark: listed apart in the source

Binder | binding result [1] | binding result [2]
B1 | binds | –
B2 | binds | –
B3 | binds | –
B4 | – | binds
B5 | – | binds
